Experimental data: paper PMC5489075, “Purification and characterisation of the fission yeast Ndc80 complex” (Protein Expression and Purification, 2017)

Molecular target: T1, Ndc80-eGFP holo complex (S. pombe, UniProt Q10198 1-624; Q10173 1-441; Q9UST6 1-198; Q10430 1-238)
T1 construct: Ndc80, S. pombe, full-length 624 a.a; Nuf2, S. pombe, full-length 441 a.a; Spc24, S. pombe, full-length 198 a.a; Spc25, S. pombe, full-length 238 a.a; also called Ndc80 holo complex; Ndc80 complex; source: E. coli BL21 (DE3) RIL; two sub-complexes purified, mixed, purified (Ni-TED, TEV cleavage, Superose 6 size-exclusion chromatography); not shown: 6His-Z, N-terminal, cleaved; Z-tag, N-terminal, …
Test: TIRF microscopy; 100 pM Ndc80-eGFP holo complex on dynamic Cy5-microtubules with 10 nM unlabelled Dis1 or 20 nM unlabelled Mal3; read-out is the place of the eGFP signal (lattice or growing plus end); BRB80 with 85 mM KCl, 30 °C
Settings: both partners purified

T1 sequence (Q10198 whole entry, chain 1 of 4): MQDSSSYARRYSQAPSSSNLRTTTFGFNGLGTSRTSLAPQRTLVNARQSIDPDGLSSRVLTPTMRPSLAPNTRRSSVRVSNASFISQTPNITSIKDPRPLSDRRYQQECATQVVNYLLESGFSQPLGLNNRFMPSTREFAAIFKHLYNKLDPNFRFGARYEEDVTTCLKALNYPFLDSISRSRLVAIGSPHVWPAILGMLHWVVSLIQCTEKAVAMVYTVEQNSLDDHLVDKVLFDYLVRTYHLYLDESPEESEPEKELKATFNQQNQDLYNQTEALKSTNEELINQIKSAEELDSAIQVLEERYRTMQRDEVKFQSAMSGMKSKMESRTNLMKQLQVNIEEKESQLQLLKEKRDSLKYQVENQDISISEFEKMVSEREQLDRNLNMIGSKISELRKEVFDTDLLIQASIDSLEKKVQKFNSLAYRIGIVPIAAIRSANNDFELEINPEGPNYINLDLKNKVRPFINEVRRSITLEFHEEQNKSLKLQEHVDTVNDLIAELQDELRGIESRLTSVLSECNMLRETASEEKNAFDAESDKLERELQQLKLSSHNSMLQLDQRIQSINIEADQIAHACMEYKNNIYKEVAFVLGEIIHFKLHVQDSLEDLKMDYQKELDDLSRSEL
T1 sequence (Q10173 whole entry, chain 2 of 4): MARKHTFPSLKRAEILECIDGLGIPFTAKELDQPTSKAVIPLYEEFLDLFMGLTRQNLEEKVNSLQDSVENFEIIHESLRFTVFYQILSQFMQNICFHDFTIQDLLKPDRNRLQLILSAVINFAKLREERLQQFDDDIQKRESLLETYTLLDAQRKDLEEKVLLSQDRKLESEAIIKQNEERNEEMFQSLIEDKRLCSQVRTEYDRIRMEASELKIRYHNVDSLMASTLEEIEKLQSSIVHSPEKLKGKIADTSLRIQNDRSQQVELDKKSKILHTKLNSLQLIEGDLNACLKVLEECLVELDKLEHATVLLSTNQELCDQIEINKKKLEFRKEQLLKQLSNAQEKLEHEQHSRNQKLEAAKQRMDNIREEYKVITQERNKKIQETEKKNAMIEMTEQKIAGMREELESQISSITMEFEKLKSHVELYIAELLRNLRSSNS
T1 sequence (Q9UST6 whole entry, chain 3 of 4): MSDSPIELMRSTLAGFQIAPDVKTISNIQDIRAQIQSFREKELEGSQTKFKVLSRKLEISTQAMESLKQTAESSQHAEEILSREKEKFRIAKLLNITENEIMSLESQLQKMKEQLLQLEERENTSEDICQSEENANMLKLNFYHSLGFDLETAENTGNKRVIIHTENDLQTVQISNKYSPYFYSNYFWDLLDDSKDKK
T1 sequence (Q10430 whole entry, chain 4 of 4): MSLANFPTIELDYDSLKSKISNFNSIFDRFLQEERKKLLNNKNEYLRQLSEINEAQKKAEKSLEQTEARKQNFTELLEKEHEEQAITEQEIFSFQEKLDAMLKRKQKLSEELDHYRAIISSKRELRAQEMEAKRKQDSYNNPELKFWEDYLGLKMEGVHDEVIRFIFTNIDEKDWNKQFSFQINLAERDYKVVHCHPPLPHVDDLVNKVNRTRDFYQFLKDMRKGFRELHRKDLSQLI

- binding result: binds
B1: Mal3 (natural protein, S. pombe, UniProt Q10113 1-308, looked up)
chain: MSESRQELLAWINQVTSLGLTRIEDCGKGYAMIQIFDSIYQDIPLKKVNFECNNEYQYINNWKVLQQVFLKKGIDKVVDPERLSRCKMQDNLEFVQWAKRFWDQYYPGGDYDALARRGNRGPANTRVMNSSAGATGPSRRRQVSSGSSTPSMTKSSANNNNVSSTANTAAVLRAKQAQQQITSLETQLYEVNETMFGLERERDFYFNKLREIEILVQTHLTTSPMSMENMLERIQAILYSTEDGFELPPDQPADLTTALTDHDTNNVAEEAQMTDLKDSETQRVPSAPDFVHARLQSLEVDDDENITF
notes: Mal3, fission yeast EB1 microtubule plus-end tracking protein; also called Mal3/EB1; unlabelled Mal3
